Reference: US11433139B2, “Peptide vaccines against interleukin-31” (Zoetis Services LLC, priority 2018, dated 2022)
Entries after “also recorded” stand apart in the source; their conditions may differ.

Experiments:
wildtype feline IL-31 = test: Indirect ELISA, binding to wildtype feline IL-31
Procedure: (§1) Mice and dogs were immunized with recombinant canine IL-31 (SEQ ID No. 155) for the purpose of identifying antibodies. Serum antibody titers from immunized animals were determined using an enzyme linked immunosorbent assay (ELISA). Canine or feline IL-31 (50 ng/well) was immobilized to polystyrene microplates and used as a capture antigen. Serum from immunized animals was diluted in phosphate buffered saline with 0.05% tween-20 (PBST). The presence of anti-IL-31 antibodies was detected with an appropriate secondary HRP labeled antibody. Following addition of a chromogenic substrate (SureBlue Reserve TMB 1-Component Microwell Peroxidase Substrate, KPL, Inc., Gaithersburg, Md.) and a ten minute incubation at room temperature (RT) the reaction was stopped with the addition of […] of 0.1 N HCl. The absorbance of each well was determined at an optical density (OD) of 450 nm. Antibodies were selected for their ability to bind canine and feline IL-31 using an ELISA. In some cases, further characterization was performed at the time of selection using an ELISA with a mutant form of the feline IL-31 protein as a capture antigen. Cells producing antibodies with desired binding and inhibitory properties were chosen for sequence analysis of RNA transcripts representing the variable heavy (VH) and variable light (VL) IgG chains.
(§2) For the indirect ELISA method, antibody binding to wildtype and feline IL-31 15H05 mutant proteins was assessed. […] In comparison, the 11E12 antibody bound to the wild-type feline IL-31 and its binding was not impacted by the mutations in the 15H05 epitope region as evidenced by the data in FIG. 4. To confirm binding, biacore analysis was performed using canine, feline, equine, human, feline 15H05 mutant, and feline 11E12 mutant IL-31 proteins as surfaces and a single test concentration of antibody. Similar to ELISA observations, all antibodies tested bound to wildtype feline IL-31. In agreement with the data described above in this section, mouse antibodies 11 E12 and 15H05 both bound to canine and feline IL-31 surfaces. […] From this group of nine fully canine antibodies, only ZIL1 and ZIL9 cross-reacted with equine IL-31. Of note, antibody 15H05 was the only one of all assayed herein that bound to canine, feline, and equine IL-31 indicating some level of epitope conservation across the three species. In contrast, none of the antibodies described herein bound to human IL-31. Additional biacore surfaces were used to verify ELISA observations showing differential binding of antibodies to wildtype feline IL-31 and two proteins with mutations in the 15H05 (15H05 mutant) or 11 E12 (11E12 mutant) epitopes. […] Differing results can be attributed to differences in the two assay methodologies.
(§3) To determine the impact of mAbs 11E12 and 15H05 ability to bind these mutant forms of feline IL-31, an indirect ELISA was run using the mutants directly coated on to an immunoassay plate. […] The minor attenuation of mAb 15H05s binding to the 11E12 mutant is likely due to translational effects of the mutations from movement of the two front helices effecting the 15H05 binding site. The mutations designed to affect mAb 15H05s binding (mutant 15H05) show a complete loss of mAb 1505s ability to bind this IL-31 mutant by ELISA. Unlike the 11E12 mutant, the changes in the random coil recognized by mAb 15H05 (mutant 15H05) had no impact on mAb 11E12 binding further supporting the distinction between the two epitopes (FIG. 6C).

[1] = test system: feline IL-31 15H05 mutant; test: Indirect ELISA, binding to feline IL-31 15H05 mutant; conditions: compared with wildtype
Chain of feline IL-31 15H05 mutant (as listed by the source, change not shown): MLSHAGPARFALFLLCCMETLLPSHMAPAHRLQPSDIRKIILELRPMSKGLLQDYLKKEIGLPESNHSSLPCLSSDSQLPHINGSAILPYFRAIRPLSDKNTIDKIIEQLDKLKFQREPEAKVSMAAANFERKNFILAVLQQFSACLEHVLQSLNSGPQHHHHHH
Procedure: as §1, §2, §3

canine IL-31 = test: Affinity of anti-IL-31 antibodies by surface plasmon resonance (Biacore), canine IL-31 surface; format: binding; conditions: IL-31 conjugated to the surface (FIG. 2)
Chain of canine IL-31 (as listed by the source): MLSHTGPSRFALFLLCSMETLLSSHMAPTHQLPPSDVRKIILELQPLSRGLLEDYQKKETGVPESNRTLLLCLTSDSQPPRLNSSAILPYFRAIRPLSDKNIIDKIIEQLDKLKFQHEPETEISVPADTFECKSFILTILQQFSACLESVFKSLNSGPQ
Procedure: (§4) The affinity with which candidate mAbs bind canine and feline IL-31 was determined using surface plasmon resonance (SPR) on a Biacore system (Biocore Life Sciences (GE Healthcare), Uppsala, Sweden). To avoid affinity differences associated with differential surface preparation that can occur when immobilizing antibodies to surfaces; a strategy was employed where IL-31 was directly conjugated to the surface. Immobilization was obtained by amine coupling 5 μg/mL IL-31 using N-hydroxysuccinimide (NHS)/1-Ethyl-3-(3-dimethylaminopropyl) carbodiimide (EDC) chemistry. Chips were quenched with ethanolamine and the affinity with which all candidate mAbs bound to the immobilized IL-31 was evaluated. All curves were fit to a 1:1 model. Affinity constants (KD) less than 1×10^−11M (1E-11 M) are below the lower limit of quantitation of detection for the instrument. Results for affinity measurements are described herein.

feline IL-31 = test: Affinity of anti-IL-31 antibodies by surface plasmon resonance (Biacore), feline IL-31 surface; format: binding; conditions: IL-31 conjugated to the surface (FIG. 2)
Chain of feline IL-31 (as listed by the source): as the sequence (as listed by the source, change not shown) above, with A126P, A128D counted along it
Procedure: as §4

Chain of wildtype feline IL-31 (as listed by the source): as the sequence (as listed by the source, change not shown) above, with A126P, A128D counted along it

| Molecule | binding to wildtype feline IL-31 (ELISA) (wildtype feline IL-31) | binding to feline IL-31 15H05 mutant (ELISA) [1] | affinity (KD) to canine IL-31 (canine IL-31) | affinity (KD) to feline IL-31 (feline IL-31) |
| --- | --- | --- | --- | --- |
| ZIL11: fully canine anti IL-31 antibody, VH SEQ ID NO: 87, VL SEQ ID NO: 89 (antibody, listed as Canis familiaris, V domains shown) VH: EVQLVESGGDLVKPAGSLRLSCVASGFTFRTYVMNWVRQAPGKGLQWVASINGGGSSPTYADAVRGRFTVSRDNAQNSLFLQMNSLRAEDTAVYFCVVSMVGPFDYWGQGTLVTVSS VL: SSVLTQPPSVSVSLGQTATISCSGESLSNYYAQWFQQKAGQAPVLVIYKDTERPSGIPDRFSGSSSGNTHTLTISGARAEDEADYYCESAVSSDTIVFGGGT | capable of binding | binding was impacted | – | – |
| Feline 15H05 1.1: felinized 15H05, FEL_15H05_VH1 with FEL_15H05_VL1 (antibody, V domains shown) VH: QVLLVQSGAEVRTPGASVKIFCKASGYSFTSYTIHWLRQAPAQGLEWMGNINPTSGYTENNQRFKDRLTLTADTSTNTAYMELSSLRSADTAMYYCARWGFKYDGEWSFDVWGAGTTVTVSS VL: EIQMTQSPSSLSASPGDRVTITCRASQGISIWLSWYQQKPGKVPKLLIYKASNLHIGVPSRFSGSGSGTDFTLTISSLEPEDAATYYCLQSQTYPLTFGGGTKLEIK | – | – | neutral to positive impact on affinity | – |
| Feline 15H05 1.1 FW1_3: FEL_15H05_VH1 with FEL_15H05_VL1_FW1_FW3 (antibody, V domains shown) VH: QVLLVQSGAEVRTPGASVKIFCKASGYSFTSYTIHWLRQAPAQGLEWMGNINPTSGYTENNQRFKDRLTLTADTSTNTAYMELSSLRSADTAMYYCARWGFKYDGEWSFDVWGAGTTVTVSS VL: DIQMNQSPSSLSASLGDTITVTCRASQGISIWLSWYQQKPGKVPKLLIYKASNLHIGVPPRFSGSGSGTHFTLTITSLQPEDIATYYCLQSQTYPLTFGGGTKLEIK | – | – | good affinity | good affinity |
| Feline 15H05 1.1 FW1: FEL_15H05_VH1 with FEL_15H05_VL1_FW1 (antibody, V domains shown) VH: QVLLVQSGAEVRTPGASVKIFCKASGYSFTSYTIHWLRQAPAQGLEWMGNINPTSGYTENNQRFKDRLTLTADTSTNTAYMELSSLRSADTAMYYCARWGFKYDGEWSFDVWGAGTTVTVSS VL: DIQMNQSPSSLSASLGDTITVTCRASQGISIWLSWYQQKPGKVPKLLIYKASNLHIGVPSRFSGSGSGTDFTLTISSLEPEDAATYYCLQSQTYPLTFGGGTKLEIK | – | – | detrimental to the affinity | detrimental to the affinity |
| Feline 15H05 1.1 FW2: FEL_15H05_VH1 with FEL_15H05_VL1_FW2 (antibody, V domains shown) VH: QVLLVQSGAEVRTPGASVKIFCKASGYSFTSYTIHWLRQAPAQGLEWMGNINPTSGYTENNQRFKDRLTLTADTSTNTAYMELSSLRSADTAMYYCARWGFKYDGEWSFDVWGAGTTVTVSS VL: EIQMTQSPSSLSASPGDRVTITCRASQGISIWLSWYQQKPGNIPKVLINKASNLHIGVPSRFSGSGSGTDFTLTISSLEPEDAATYYCLQSQTYPLTFGGGTKLEIK | – | – | excellent affinity; also recorded: increased affinity | excellent affinity; also recorded: increased affinity |
| Feline 15H05 2.2: felinized 15H05, FEL_15H05_VH2 with FEL_15H05_VL2 (antibody, V domains shown) VH: QVLLVQSGAEVRTPGASVKIFCKASGYGFTSYTIHWVRQSPAQGLEWMGNINPTSGYTENNQRFKDRLTLTADTSTNTAYMELSSLRSADTAMYYCARWGFKYDGEWSFDVWGAGTTVTVSS VL: EITMTQSPGSLAGSPGQQVTMNCRASQGISIWLSWYQQKPGQHPKLLIYKASNLHIGVPDRFSGSGSGTDFTLTISNLQAEDVASYYCLQSQTYPLTFGGGTKLEIK | – | – | neutral to positive impact on affinity | – |
| Feline 15H05 1.1 FW3: FEL_15H05_VH1 with FEL_15H05_VL1_FW3 (antibody, V domains shown) VH: QVLLVQSGAEVRTPGASVKIFCKASGYSFTSYTIHWLRQAPAQGLEWMGNINPTSGYTENNQRFKDRLTLTADTSTNTAYMELSSLRSADTAMYYCARWGFKYDGEWSFDVWGAGTTVTVSS VL: EIQMTQSPSSLSASPGDRVTITCRASQGISIWLSWYQQKPGKVPKLLIYKASNLHIGVPPRFSGSGSGTHFTLTITSLQPEDIATYYCLQSQTYPLTFGGGTKLEIK | – | – | excellent affinity | excellent affinity |
| Feline 15H05_VH3 mouse VL: heterochimeric antibody, FEL_15H05_VH3 with MU_15H05_VL (antibody, V domains shown) VH: QVLLVQSGAEVRKPGASVKIFCKASGYSFTSYTIHWLRQAPEQGLEWMGNINPTSGYTENNQRFKDRLTLTADTSTNTAYMELSSLRSADTAMYYCARWGFKYDGEWSFDVWGAGTTVTVSS VL: DIQMNQSPSSLSASLGDTITVTCRASQGISIWLSWYQQKPGNIPKVLINKASNLHIGVPPRFSGSGSGTHFTLTITSLQPEDIATYYCLQSQTYPLTFGGGTKLEIN | – | – | improved affinity | restored the affinity to feline IL-31 to equivalent or better than the mouse and chimeric forms |
| Feline 15H05 3.2: felinized 15H05, FEL_15H05_VH3 with FEL_15H05_VL2 (antibody, V domains shown) VH: QVLLVQSGAEVRKPGASVKIFCKASGYSFTSYTIHWLRQAPEQGLEWMGNINPTSGYTENNQRFKDRLTLTADTSTNTAYMELSSLRSADTAMYYCARWGFKYDGEWSFDVWGAGTTVTVSS VL: EITMTQSPGSLAGSPGQQVTMNCRASQGISIWLSWYQQKPGQHPKLLIYKASNLHIGVPDRFSGSGSGTDFTLTISNLQAEDVASYYCLQSQTYPLTFGGGTKLEIK | – | – | neutral to positive impact on affinity | – |
| Feline 15H05_VH1 mouse VL: heterochimeric antibody, FEL_15H05_VH1 with MU_15H05_VL (antibody, V domains shown) VH: QVLLVQSGAEVRTPGASVKIFCKASGYSFTSYTIHWLRQAPAQGLEWMGNINPTSGYTENNQRFKDRLTLTADTSTNTAYMELSSLRSADTAMYYCARWGFKYDGEWSFDVWGAGTTVTVSS VL: DIQMNQSPSSLSASLGDTITVTCRASQGISIWLSWYQQKPGNIPKVLINKASNLHIGVPPRFSGSGSGTHFTLTITSLQPEDIATYYCLQSQTYPLTFGGGTKLEIN | – | – | improved affinity | restored the affinity to feline IL-31 to equivalent or better than the mouse and chimeric forms |
| Feline 15H05 1.1_FW1_2: FEL_15H05_VH1 with FEL_15H05_VL1_FW1_FW2 (antibody, V domains shown) VH: QVLLVQSGAEVRTPGASVKIFCKASGYSFTSYTIHWLRQAPAQGLEWMGNINPTSGYTENNQRFKDRLTLTADTSTNTAYMELSSLRSADTAMYYCARWGFKYDGEWSFDVWGAGTTVTVSS VL: DIQMNQSPSSLSASLGDTITVTCRASQGISIWLSWYQQKPGNIPKVLINKASNLHIGVPSRFSGSGSGTDFTLTISSLEPEDAATYYCLQSQTYPLTFGGGTKLEIK | – | – | good affinity | good affinity |
